Measurements taken from US20120064150A1.

Experiments:
[1] = biological target: inter-α-inhibitor (IαI) (human) (UniProt P02760)
[2] = biological target: inter-α-inhibitor (IαI) (human) (UniProt P02760); test: cell-based or functional assay

UniProt P02760, sequence (P02760 206-352): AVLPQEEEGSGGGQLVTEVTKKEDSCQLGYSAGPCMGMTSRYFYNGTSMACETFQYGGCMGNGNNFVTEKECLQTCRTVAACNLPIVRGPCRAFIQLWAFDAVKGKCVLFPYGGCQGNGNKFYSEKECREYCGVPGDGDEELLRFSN

TNF-stimulated gene 6 protein (TSG-6), recombinant (from UniProt P98066 18-277)
EC50 (read off the curve): TSG-6 concentration for half-maximal HC transfer from plasma IαI (1:1000) to Cov-HA [1]: 0.4 nM
HC transfer to Cov-HA in the presence of 50 nM TSG-6, plasma dilution series [2]: 200 pM
decrease in HC transfer to Cov-HA in the presence of 50 nM TSG-6, plasma dilution 1:4000 [2]: 50%
transfer of HCs from IαI in human plasma (1:1000) to Cov-HA, detected with anti-HC antibody [2]: 16 µM
